Tests used:
JAK2 [1] = target: T1, JAK2 (Homo sapiens, UniProt O60674); test: ELISA binding of JAK2 to immobilized βc peptides; parameters: Y918N clone error corrected to Tyr
Protocol: βc peptides corresponding to the proposed JAK2 binding domain (Table 1) were serially diluted and bound 16 hours at room temperature to streptavidin coated 96-well plates (Boehringer-Mannheim, Indianapolis, Ind.) and blocked at 37° with 1% fetal bovine serum in PBS. JAK2 protein was serially diluted on the plate and allowed to bind for 1 hour at room temperature. Plates were washed between incubations with ELISA wash (PBS with 0.04% TWEEN 20). Detection was via anti-FLAG antibody (10 μg/ml, Kodak, New Haven, Conn.) followed by anti-mouse Ig conjugated to peroxidase (1:5000 dilution, Boehringer Mannheim) and 1 mg/ml 2,2'-azinobis(3-ethylbenzthiazolinesulfonic acid) (Sigma), 0.003% H2 O2, 28 mM citric acid, 44 mM Na2 HPO4.
The ELISA assay worked best when the biotinylated βc peptides were immobilized on a streptavidin 96-well plate and the JAK2 was allowed to bind. A dual titration of βc peptides vs. JAK2 was performed (FIG. 24). Peptide 1 [SEQ ID NO:11] (FIG. 24 A) and peptide 2 [SEQ ID NO:12] […] Because 0.4 μM peptide was calculated to saturate the number of biotin binding sites in each well, it was expected that the amount of JAK2 binding should saturate at this quantity of peptide. […] (FIGS. 24 C and D) but peptides 5 and 6 [SEQ ID NOS:15 and 16]

[2] = target: NJAK2 (N-terminal portion of JAK2) (Homo sapiens, UniProt O60674); test: SPA: binding of 3H-NJAK2 (N-terminal JAK2) to βc peptides on streptavidin-coated beads; details: less than saturating peptide, 40 pmole per reaction, FIG. 12B
Chain of NJAK2 (N-terminal portion of JAK2) (O60674 1-294 S277G): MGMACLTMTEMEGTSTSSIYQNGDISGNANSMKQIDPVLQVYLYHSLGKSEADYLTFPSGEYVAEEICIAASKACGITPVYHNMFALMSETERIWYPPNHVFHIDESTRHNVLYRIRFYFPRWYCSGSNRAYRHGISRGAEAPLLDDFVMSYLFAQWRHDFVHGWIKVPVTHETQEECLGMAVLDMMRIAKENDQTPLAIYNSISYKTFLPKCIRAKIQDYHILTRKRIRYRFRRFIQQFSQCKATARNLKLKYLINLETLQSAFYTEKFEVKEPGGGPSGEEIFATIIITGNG
Protocol: (§1) Three different labeling reactions were done using ^3 H-N-succinimidyl propionate (^3 H-NSP, Amersham Life Sciences, Arlington Heights, Ill.). One reaction was done using 0.5 mg of purified JAK2 in 0.1 M borate buffer, pH 8.5, with a reaction volume of 150 μl and an incubation time of one hour on ice with dried 1 mCi of ^3 H-NSP (toluene was removed using a stream of nitrogen). […] Another reaction was done using the buffer 0.1 M sodium phosphate, pH 8.0, and a similar volume as before. One milligram of JAK2 in 1.2 ml of phosphate buffer was incubated for three hours on ice. […] A third reaction was done using 2.5 mg of purified JAK2 in 0.1 m sodium phosphate, pH 8.0, and 2.5 ml volume. It was incubated with 5 mCi of dried ^3 H-NSP on ice for 2 hours. […] All three products were separated from unincorporated label using PD-10 columns (Pharmacia Biotech, Uppsala, Sweden) pre-equilibrated with 20 mM Tris, pH 8.0, 0.15 M NaCl.
(§2) Triplicate reactions were done for each data point. The buffer used in all the assays was 35 mM sodium phosphate, 150 mM NaCl, pH 8.0, 10% glycerol. Biotinylated peptides were allowed to bind to streptavidin-coated SPA beads (Amersham Life Sciences, Arlington Heights, Ill., catalog # RPNQ0006) with either less than saturating peptide or excess peptide. […] Under less than saturating conditions, beads and 40 pmole peptide were added to the assay plate well and incubated for one hour with gentle shaking on a Titer plate shaker (Lab-Line Instruments, Inc., Melrose Park, Ill.) at 600 rpm and not washed. […] The plates were then read on a MicroBeta (Wallac) set to read scintillation due to tritium.
(§3) Either ^3 H-JAK2 or ^3 H-NJAK2 was added to the wells and, after incubation, the signals measured. […] A competition reaction was also done by adding 5 to 10-fold excess unlabeled JAK2 in those reactions.

JAK2 [3] = target: T1, JAK2; test: SPA: binding of 3H-JAK2 to βc peptides on streptavidin-coated beads; parameters: NJAK2 = N-terminal 294 residues
Protocol: Cells were lysed by dounce homogenization (20 strokes) in 1X phosphate buffered saline (PBS), pH 7.5 at 4 C. […] For some experiments, the JAK2 protein (0.15 mg/ml), aliquoted into 7 equivalent tubes, was then subjected to ultracentrifugation in an Airfuge using an A-110 rotor at an average of 164,000×g for a period of 6 hours at ambient temperature. At zero time, and at each subsequent hour thereafter, a tube of JAK2 was removed for analyses (ELISA, SDS polyacrylamide gel electrophoresis, and Western blotting).
as §1, §2, §3

T1 sequence (O60674 3-1132): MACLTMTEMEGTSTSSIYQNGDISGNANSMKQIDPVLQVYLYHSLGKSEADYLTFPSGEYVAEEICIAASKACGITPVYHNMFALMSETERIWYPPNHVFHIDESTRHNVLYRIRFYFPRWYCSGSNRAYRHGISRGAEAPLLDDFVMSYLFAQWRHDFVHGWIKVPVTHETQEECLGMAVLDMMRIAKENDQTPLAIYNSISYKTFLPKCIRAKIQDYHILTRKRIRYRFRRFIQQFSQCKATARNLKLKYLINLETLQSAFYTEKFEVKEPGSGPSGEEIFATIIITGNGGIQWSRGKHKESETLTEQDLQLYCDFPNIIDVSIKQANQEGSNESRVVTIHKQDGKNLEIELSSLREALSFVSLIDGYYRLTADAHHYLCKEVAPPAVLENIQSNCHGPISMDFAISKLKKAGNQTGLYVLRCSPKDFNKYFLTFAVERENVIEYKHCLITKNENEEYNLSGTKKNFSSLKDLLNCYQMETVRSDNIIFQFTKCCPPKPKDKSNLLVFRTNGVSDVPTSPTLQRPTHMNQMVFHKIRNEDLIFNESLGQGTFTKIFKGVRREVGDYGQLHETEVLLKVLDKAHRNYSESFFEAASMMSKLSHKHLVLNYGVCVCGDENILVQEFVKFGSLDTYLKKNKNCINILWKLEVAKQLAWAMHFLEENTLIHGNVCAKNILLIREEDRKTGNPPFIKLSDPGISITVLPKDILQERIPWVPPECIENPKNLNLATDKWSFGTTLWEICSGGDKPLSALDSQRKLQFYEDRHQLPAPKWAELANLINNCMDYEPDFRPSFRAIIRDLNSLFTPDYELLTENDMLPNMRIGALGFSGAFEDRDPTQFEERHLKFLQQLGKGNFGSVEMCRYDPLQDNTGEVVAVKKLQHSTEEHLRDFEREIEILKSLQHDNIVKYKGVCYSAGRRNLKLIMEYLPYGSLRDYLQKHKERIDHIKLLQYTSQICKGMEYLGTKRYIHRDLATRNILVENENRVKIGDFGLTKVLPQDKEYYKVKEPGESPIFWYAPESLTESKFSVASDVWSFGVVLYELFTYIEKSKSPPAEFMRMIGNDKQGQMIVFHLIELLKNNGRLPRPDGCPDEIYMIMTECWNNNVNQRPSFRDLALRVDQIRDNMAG

suitability for the ELISA (JAK2 [1]): appear optimal | binding in the SPA, comparison of peptides (JAK2 [3]): binds better than peptide 3 | suitability in the SPA (JAK2 [3]): two most optimal | signal-to-noise ratio (JAK2 [3]; 40 pmole (0.17 μg) peptide per reaction, without optimization): 4.5 | signal to noise ratio (JAK2 [3]; 5.5 nM JAK2, κ-casein present, FIG. 17B): 14 | signal-to-noise ratio (JAK2 [3]; BSA 0.1 mg/ml or 0.5 mg/ml (either concentration), FIG. 16): 5 | signal-to-noise ratio (JAK2 [3]; BSA experiment, no additions, FIG. 16): 4 | amount of JAK2 at which binding reaches saturation (JAK2 [3]; binding curve, peptide 4, FIG. 17A): about 40 pmole | apparent Kd (JAK2 [3]; binding curve, varying labeled JAK2, FIG. 17A): very low apparent Kd | signal-to-noise ratio (JAK2 [3]; excess peptide, no κ-casein, FIG. 15): 10 | signal-to-noise ratio (JAK2 [3]; excess peptide, κ-casein 1 mg/ml during peptide binding to beads, FIG. 15): 35 | strength of binding (linear increase with JAK2) (JAK2 [3]; less than saturating JAK2, FIG. 17B): very strong | activity profile, peptide and labeled JAK2 mixed prior to adding beads (JAK2 [3]; mixed one hour before beads, FIG. 13): same activity profile
Sequence: GIYGYRLRRKWEEKIPNPSKSHLFQNGSAELWP [peptide 4, βc peptide, N-terminal truncation]
activity profile in binding 3H-NJAK2 (signal) [2]: peptide 4>peptide 3>peptide 5>peptide 6>peptides 1 and 2 | activity profile in binding 3H-JAK2 (signal) (JAK2 [3]; less than saturating peptide, 40 pmole per reaction, 3H-JAK2, FIG. 12A): peptide 4>peptide 3>peptide 5>peptide 6>peptides 1 and 2 | overall signals and signal-to-noise ratios, peptide and labeled JAK2 mixed prior to adding beads (JAK2 [3]; mixed one hour before beads, versus peptide bound to bead first, FIG. 13): lower overall signals and signal-to-noise ratios

Source: US6187552A, “Method for identifying inhibitors of JAK2/cytokine receptor binding” (Pharmacia & Upjohn Company, priority 1998, dated 2001)
